Holding throughout (test): positional peptide library pulldown on immobilised Nb, LC-MS of supernatant; signal ratio to control GFP-Nb (1 = not captured, near 0 = captured)
One test addresses T1, BC2T K4F.
T1 construct: positional scanning library member
T1 peptide: Ac-PDRFAAVSHWQQ-NH2
An outline of the steps:
(§1)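 Unbound peptide left in supernatant after 1 h pulldown in PBS/0.01% CHAPS measured by reversed-phase LC-MS (8–30% eluent B gradient, 20 min).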

A further test has as its target T2, BC2T A6F.
T2 construct: positional scanning library member
T2 peptide: Ac-PDRKAFVSHWQQ-NH2
The method in brief:
as §1

The target in the next test is T3, BC2T A5W.
T3 construct: positional scanning library member
T3 peptide: Ac-PDRKWAVSHWQQ-NH2
The method in brief:
as §1

Another test addresses T4, BC2T V7S.
T4 construct: positional scanning library member
T4 peptide: Ac-PDRKAASSHWQQ-NH2
The method in brief:
as §1

The target in the next test is T5, BC2T R3N.
T5 construct: positional scanning library member
T5 peptide: Ac-PDNKAAVSHWQQ-NH2
The method in brief: as §1

The next test has as its target T6, BC2T A6N.
T6 construct: positional scanning library member
T6 peptide: Ac-PDRKANVSHWQQ-NH2
An outline of the steps: as §1

A further test concerns the target T7, BC2T D2Q.
T7 construct: positional scanning library member
T7 peptide: Ac-PQRKAAVSHWQQ-NH2
The method in brief: as §1

Another test deals with T8, BC2T K4Q.
T8 construct: positional scanning library member
T8 peptide: Ac-PDRQAAVSHWQQ-NH2
The method in brief: as §1

For a further test, the target named is T9, BC2T V7Q.
T9 construct: positional scanning library member
T9 peptide: Ac-PDRKAAQSHWQQ-NH2
An outline of the steps: as §1

In another test the target is T10, BC2T D2Y.
T10 construct: positional scanning library member
T10 peptide: Ac-PYRKAAVSHWQQ-NH2
The method in brief:
as §1

For another test, the target named is T11, BC2T R3Y.
T11 construct: positional scanning library member
T11 peptide: Ac-PDYKAAVSHWQQ-NH2
The method in brief: as §1

For another test, the target named is T12, BC2T A5Y.
T12 construct: positional scanning library member
T12 peptide: Ac-PDRKYAVSHWQQ-NH2
An outline of the steps:
as §1

The next test addresses T13, BC2T D2H.
T13 construct: positional scanning library member
T13 peptide: Ac-PHRKAAVSHWQQ-NH2
An outline of the steps: as §1

For a further test, the target named is T14, BC2T V7H.
T14 construct: positional scanning library member
T14 peptide: Ac-PDRKAAHSHWQQ-NH2
An outline of the steps:
as §1

The target in a further test is T15, BC2T A5D.
T15 construct: positional scanning library member
T15 peptide: Ac-PDRKDAVSHWQQ-NH2
The method in brief: as §1

A further test deals with T16, BC2T A6P.
T16 construct: positional scanning library member
T16 peptide: Ac-PDRKAPVSHWQQ-NH2
An outline of the steps:
as §1

In the next test the target is T17, BC2T A5E.
T17 construct: positional scanning library member
T17 peptide: Ac-PDRKEAVSHWQQ-NH2
The method in brief: as §1

The next test deals with T18, BC2T A6E.
T18 construct: positional scanning library member
T18 peptide: Ac-PDRKAEVSHWQQ-NH2
The method in brief: as §1

The target in another test is T19, BC2T Q12D.
T19 construct: positional scanning library member
T19 peptide: Ac-PDRKAAVSHWQD-NH2
An outline of the steps: as §1

In a further test the target is T20, BC2T Q12E.
T20 construct: positional scanning library member
T20 peptide: Ac-PDRKAAVSHWQE-NH2
The method in brief: as §1

Test [1] has as its target T21, BC2T peptide PDRKAAVSHWQQ (human).
T21 construct: aa 16-27 of beta-catenin; also called BC2-tag; BC2-peptide
T21 peptide: Ac-PDRKAAVSHWQQ-NH2
An outline of the steps: as §1

B1: BC2-NbR106E (VHH)
VHH: QVQLVESGGGLVQPGGSLTLSCTASGFTLDHYDIGWFRQAPGKEREGVSCINNSDDDTYYADSVKGRFTIFMDNAKDTVYLQMNSLKPEDTAIYYCAEARGCKRGEYEYDFWGQGTQVTVSS
notes: headlock mutant of BC2-Nb; immobilised on beads in this assay
As to B1, the ratio in the test with BC2T K4F was found to be 0.6; in the test with BC2T A6F, 1; with BC2T A5W, 0; with BC2T V7S, 0.3; in the test with BC2T R3N, 0.9; in the test with BC2T A6N it was 1. For the same molecule, the ratio was found to be 0.1 with BC2T D2Q; 0.2 in the test with BC2T K4Q; 0.4 in the test with BC2T V7Q; 0.1 in the test with BC2T D2Y; 0.9 with BC2T R3Y; 0.1 with BC2T A5Y. For the same molecule, the ratio in the test with BC2T D2H came out at 0.1; with BC2T V7H, 0.3; in the test with BC2T A5D, 0.9; with BC2T A6P it was 1.1; with BC2T A5E it was 0.8; with BC2T A6E it was 1.1.

B2: BC2 nanobody (VHH)
VHH: QVQLVESGGGLVQPGGSLTLSCTASGFTLDHYDIGWFRQAPGKEREGVSCINNSDDDTYYADSVKGRFTIFMDNAKDTVYLQMNSLKPEDTAIYYCAEARGCKRGRYEYDFWGQGTQVTVSS
notes: immobilised on beads in this assay; also called BC2-Nb; BC2 nanotrap (immobilised)
Regarding B2, the ratio with BC2T Q12D was found to be 0.6; with BC2T Q12E, 0.4; in [1], 0.1.

For the origin of these results see patent publication US20170137467A1 (CHROMOTEK, published 2017).
